Laboratory results: patent US20230039487A1 (SHENZHEN FEIPENG BIOLOGICAL THERAPY, published 2023)

Legend:
[1] = target: T1, human BCMA (full-length, on cells) (human, UniProt Q02223 1-184); assay: flow cytometry on RPMI8226 and H929 myeloma cells; antibody from 10 µg/ml in 3-fold dilutions, PE anti-mouse IgG
T1 construct: whole, on cells; also called K562-BCMA; CHO-BCMA
T1 sequence (looked up): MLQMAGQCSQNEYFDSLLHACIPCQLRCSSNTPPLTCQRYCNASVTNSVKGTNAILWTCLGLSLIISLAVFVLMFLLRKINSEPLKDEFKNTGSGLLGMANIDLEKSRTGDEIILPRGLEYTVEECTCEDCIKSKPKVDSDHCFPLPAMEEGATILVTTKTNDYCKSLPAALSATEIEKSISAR
Experimental: A RPMI8226 cell (ATCC® CRM-CCL-155™) is a human multiple myeloma peripheral blood B lymphocyte, and a H929 cell (ATCC® CRL-9068™) is a human multiple myeloma bone marrow B lymphocyte. A specific detection method is as follows: cells are harvested, washed with PBS once, and then resuspend with PBS according to 2E+5 cells/200 μl. The three antibodies are diluted in a gradient (the initial concentration of the antibody is 10 μg/ml, it is diluted with 1% BSA in 3-fold, and there is a total of 9 gradients), and then incubated with the cells for 30 min at 4° C. After that, it is incubated with a PE-labeled anti-mouse IgG secondary antibody (Biolegend, B288920), washed twice, and detected by a Beckman Coulter (model number: CytoFLEX) flow cytometry.

[2] = target: T2, hBCMA ECD hFc (ACRO, BC7-H5254) (human, UniProt Q02223 1-54); assay: ELISA; hBCMA ECD hFc coated at 2 µg/ml, antibody in 3-fold dilutions
T2 construct: extracellular domain; Bought reagent (ACRO BC7-H5254); also called R0341; not shown: human Fc
T2 sequence (looked up): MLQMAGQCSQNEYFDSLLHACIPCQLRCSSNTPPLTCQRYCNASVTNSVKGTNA
From the text: R0317 is a C11D5.3BCMA mouse monoclonal antibody, and its specific sequence and information may be found publicly.

[3] = target: T3, hu (human) BCMA ECD His (ACRO, BCA-H522y) (human, UniProt Q02223 1-54); assay: ELISA; hu BCMA ECD His coated at 2 µg/mL, antibody in 3-fold dilutions
T3 construct: extracellular domain; Bought reagent (ACRO BCA-H522y); also called hu BCMA ECD His; not shown: His tag
T3 sequence (looked up): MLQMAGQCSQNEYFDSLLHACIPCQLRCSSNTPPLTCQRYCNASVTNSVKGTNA

[4] = target: T1, human BCMA (full-length, on cells); assay: flow cytometry on K562, H929, RPMI8226 and K562-BCMA cells; PE goat anti-mouse IgG1
From the text: The specificity of BCMA antibody of the present disclosure is detected by FACs. A human BCMA full-length gene is synthesized in vitro, and a restriction enzyme cutting site is introduced, the synthesized human BCMA full-length gene is inserted into a lentiviral packaging plasmid vector (PCDHF) by double enzyme digestion, and lentiviral packaging (the specific operation steps are generally 4 plasmid lentiviral packaging steps, please refer to a section about lentiviral packaging on an official website of Jikai Gene in detail) is performed. The prepared lentivirus is infected with a K562 cell (ATCC, article number: CCL-243) to construct a K562-BCMA cell, and the cells are single-clone-picked and identified, to obtain a stable cell line K562-BCMA stably expressing BCMA. The 5E2 and 5F4 antibodies are respectively incubated with K562, H929, RPMI8226 and K562-BCMA cells for 30 min at 4° C., after that, it is washed twice with PBS, then a secondary antibody PE goat anti-mouse IgG1 (Biolegend, B288920) is added, and incubated at 4° C. for 30 min, after that, it is washed twice with PBS. Then, the detection is performed by using a Beckman Coulter flow cytometry. Detection results are shown in FIG. 5 below, and 5E2 and 5F4 may specifically bind to the cells of which the BCMA expression is positive.

[5] = target: T3, hu (human) BCMA ECD His (ACRO, …); assay: ELISA; hu BCMA ECD His coated at 2 µg/mL, antibody from 20 µg/mL in 3-fold dilutions
From the text: Herein, mVH-mVL is a murine BCMA antibody, and is a murine antibody before humanization.

[6] = target: T1, human BCMA (full-length, on cells); assay: flow cytometry on K562-BCMA and CHO-BCMA cells; antibody from 30 µg/ml in 3-fold dilutions, APC anti-human IgG Fc
From the text: A K562 cell (ATCC® CCL-243™) is a human chronic myeloid leukemia cell, and a CHO cell (ATCC® CRL-12023™) is a Chinese hamster ovary cell. The K562 cells and the CHO cells are respectively infected with lentiviruses containing a full-length sequence of human BCMA, and after being infected, a monoclone is picked, to obtain a K562-BCMA cell line and a CHO-BCMA cell line stably expressing BCMA, and the affinity (EC50) of the four humanized antibodies to K562-BCMA and CHO-BCMA is detected respectively. A specific detection method is as follows: cells are harvested, washed once with PBS, and resuspended with PBS according to 2E+5 cells/200 μL. The four BCMA humanized antibodies are diluted in a 3-fold gradient with 1% BSA, the concentration of the former gradient antibody is 3 times greater than that of the latter gradient antibody, (the initial concentration of the antibody is 30 μg/ml, and there is a total of 11 gradients), and then it is respectively incubated with the cells at 4° C. for 30 min. After that, it is incubated with APC anti-human IgG Fc Antibody (Biolegend, 409306) for 30 min at 4° C., washed twice with 1x PBS, and detected by a Beckman Coulter (model number: CytoFLEX) flow cytometry. […] The affinity EC₅₀ of hu VH1VL2 to K562-BCMA is slightly weaker. However, the affinity EC₅₀ of hu VH1-VL2 and CHO-BCMA is at the same level as the other three humanized antibodies, and the expression abundance of the four humanized antibodies and the murine BCMA antibody binding to CHO-BCMA is in the order of m VH-m VL, hu VH1-VL1, hu VH2-VL1, hu VH1-VL2, and hu VH1-VL3 from high to low.

B1: R0317 (C11D5.3 BCMA mouse monoclonal antibody) (antibody, V domains shown)
VH: QIQLVQSGPELKKPGETVKISCKASGYTFTDYSINWVKRAPGKGLKWMGWINTETREPAYAYDFRGRFAFSLETSASTAYLQINNLKYEDTATYFCALDYSYAMDYWGQGTSVTVSS
VL: DIVLTQSPASLAMSLGKRATISCRASESVSVIGAHLIHWYQQKPGQPPKLLIYLASNLETGVPARFSGSGSGTDFTLTIDPVEEDDVAIYSCLQSRIFPRTFGGGTKLEIK
B1: binds [1]; binds [2].

B2: 5E2 (antibody, V domains shown)
VH: EVQLQQSGPELIKPGASVKMSCKASGYTFTSYVVHWVKQKPGQGLEWIGYIIPYNDDTKYNEKFKGKATLTSDKSSSTAYMELSSLTSEDSAVYYCARWDYDDGYFDYWGQGTTLTVSS
VL: DVVMTQTPLSLPVTLGDQASISCRSSQSLLHSNGNTYLHWYLQKPGQSPKLLIYKVSNRFSGVPDRFSGSGSGTDFTLKISRVEAEDLGVYFCSQITHIPFTFGSGTKLEIKR
notes: Mouse hybridoma antibody; It was amplified with primers for mouse IgG1 and detected with anti-mouse IgG in Embodiment 2; In Embodiment 5 it is called mVH-mVL ('a murine antibody before humanization'); also called BCMA antibody 5E2; mVH-mVL
B2: binds [3]; binds [4]; binds [2].

B3: hu VH1-VL1 (antibody, V domains shown)
VH: QVQLVQSGAEVKKPGASVKMSCKASGYTFTSYVVHWVRQAPGQGLEWIGYIIPYNDDTKYNEKFKGKATLTSDKSSSTAYMELSSLRSEDTAVYYCARWDYDDGYFDYWGQGTTVTVSS
VL: DVVMTQSPLSLPVTLGQPASISCRSSQSLLHSNGNTYLHWYLQKPGQSPQLLIYKVSNRFSGVPDRFSGSGSGTDFTLKISRVEAEDVGVYFCSQITHIPFTFGQGTKLEIK
notes: Humanized 5E2; also called humanized BCMA antibody hu VH1-VL1
B3: binds [5]; binds [6].

B4: hu VH1-VL3 (antibody, V domains shown)
VH: QVQLVQSGAEVKKPGASVKMSCKASGYTFTSYVVHWVRQAPGQGLEWIGYIIPYNDDTKYNEKFKGKATLTSDKSSSTAYMELSSLRSEDTAVYYCARWDYDDGYFDYWGQGTTVTVSS
VL: DIVMTQTPLSLSVTPGQPASISCKSSQSLLHSNGNTYLHWYLQKPGQPPQLLIYKVSNRFSGVPDRFSGSGSGTDFTLKISRVEAEDVGVYYCSQITHIPFTFGQGTKLEIKR
notes: Humanized 5E2; also called humanized BCMA antibody hu VH1-VL3
B4: binds [5]; binds [6].

B5: hu VH2-VL1 (antibody, V domains shown)
VH: QVQLVQSGAEVKKPGASVKMSCKASGYTFTSYVVHWVRQAPGQGLEWIGYIIPYNDDTKYNEKFKGRVTLTSDKSTSTAYMELSSLRSEDTAVYYCARWDYDDGYFDYWGQGTTVTVSS
VL: DVVMTQSPLSLPVTLGQPASISCRSSQSLLHSNGNTYLHWYLQKPGQSPQLLIYKVSNRFSGVPDRFSGSGSGTDFTLKISRVEAEDVGVYFCSQITHIPFTFGQGTKLEIK
notes: Humanized 5E2; also called humanized BCMA antibody hu VH2-VL1
B5: binds [5]; binds [6].

B6: hu VH1-VL2 (antibody, V domains shown)
VH: QVQLVQSGAEVKKPGASVKMSCKASGYTFTSYVVHWVRQAPGQGLEWIGYIIPYNDDTKYNEKFKGKATLTSDKSSSTAYMELSSLRSEDTAVYYCARWDYDDGYFDYWGQGTTVTVSS
VL: DVVMTQTPLSLSVTPGQPASISCKSSQSLLHSNGNTYLHWYLQKPGQSPQLLIYKVSNRFSGVPDRFSGSGSGTDFTLKISRVEAEDVGVYFCSQITHIPFTFGQGTKLEIK
notes: Humanized 5E2; also called humanized BCMA antibody hu VH1-VL2
B6: binds [5]; binds [6].
